IC50 data for five substances are collected here from US20200095296A1, “USE OF PEPTIDES AS BIOMARKERS IN THE DIAGNOSIS, CONFIRMATION AND TREATMENT OF A NEUROLOGICAL DISORDER AND TCR AND/OR HLA IMMUNOPROFILING IN NEURODEGENERATIVE DISEASE” (THE TRUSTEES OF COLUMBIA UNIVERSITY IN THE CITY OF NEW YORK, priority 2017, published 2020).

Among the targets are HLA DRB1*03:01 (human); HLA DRB1*11:01 (human); HLA DRB3*01:01 (human); HLA DRB1*04:05 (human); HLA DRB1*09:01 (human); HLA DRB1*04:01 (human).
Holding throughout (experiment): competition with radiolabeled peptide, purified HLA

A word on the IC50: it is the concentration at which inhibition is half-maximal. For alpha-syn peptide aa116…aa130, the results for the 50% inhibitory concentration (IC50) with HLA DRB1*03:01 (human), with HLA DRB1*11:01 (human) and with HLA DRB3*01:01 (human) were 6.96 µM, 1.57 µM and 5.67 µM, respectively. On to “alpha-syn peptide aa116…aa130 phosphorylated at S129”, for which, in the experiment with HLA DRB1*04:05 (human), the IC50 turned out to be 3.6 µM. In the case of alpha-syn peptide aa121…aa135, the half-inhibitory concentration (IC50) in the experiment with HLA DRB1*04:05 (human) worked out at 1.94 µM; with HLA DRB1*09:01 (human), 4.6 µM.

Consider “alpha-syn peptide aa121…aa135 phosphorylated at S129”, for which the half-inhibitory concentration (IC50) with HLA DRB1*04:01 (human) worked out at 9.13 µM; in the experiment with HLA DRB3*01:01 (human), 9.18 µM. With “alpha-syn peptide aa126…aa140 phosphorylated at S129”, in the experiment with HLA DRB1*04:01 (human), the IC50 stood at 4.96 µM.
